Earlier results as cited in article PMC5535775.

Target: DIAPH1 FH1 (Homo sapiens) (UniProt O60610)
Experiment: NMR

Sequence of UniProt O60610 (O60610 580-767): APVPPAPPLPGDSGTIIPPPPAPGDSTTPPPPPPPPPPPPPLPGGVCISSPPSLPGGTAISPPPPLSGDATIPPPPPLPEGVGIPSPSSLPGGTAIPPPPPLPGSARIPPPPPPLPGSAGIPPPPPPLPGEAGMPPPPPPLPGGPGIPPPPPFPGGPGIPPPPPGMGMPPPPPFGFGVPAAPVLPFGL

Kd: < 10 µM
Substance: RAGE cytoplasmic domain (from UniProt Q15109)
